Experiments:
Gli1 = test: 4-HT-dependent intein splicing in the Gli1 context in HEK293 cells; type: cell-based, human; details: 1 μM 4-HT
Excerpt: (§1) p3XFlag-CMV-14 (Sigma) vectors with Gli1-intein (2-4 and 3-2), and Gli3T-intein (2-4 and 3-2) sequences were previously described (Yuen et al., 2006). p3XFlag-CMV-14 mCherry-intein (2-4 and 3-2) vectors were constructed by cloning the 2-4 and 3-2 intein sequences into the pRSET-B mCherry vector provided by Professor Roger Tsien (University of California at San Diego). The mCherry-intein 2-4 and mCherry-intein 3-2 sequences were then amplified using oligonucleotides introducing a 5′ EcoRI site and a 3′ BamHI site and ligated into EcoRI- and BamHI-digested p3XFlag-CMV-14 vector. 30R3-1 intein sequence and 37R3-2 intein sequence were amplified using the following oligonucleotides compatible with mCherry, Gli1, or Gli3 contexts.

Gli3T = test: 4-HT-dependent intein splicing in the Gli3T context in HEK293 cells; type: cell-based, human; details: 1 μM 4-HT
Excerpt: as §1

GFP [1] = details: yeast
GFP [2] = details: HEK293, 37° C.
mCherry = test: 4-HT-dependent intein splicing in the mCherry context in HEK293 cells; type: cell-based, human; details: for spliced mCherry protein: HEK293, 37° C., 1 μM 4-HT
Excerpt: as §1
HEK293 cells were grown in 10 cm dishes or 6-well plates and transfected with relevant mammalian vectors using Effectene. After growth in the absence of 4-HT or in the presence of 1 μM 4-HT for 24 hours, cells were trypsinized and resuspended in 500 μL of phosphate buffered saline with 1% FBS and 75 U/mL DNase (New England Biolabs). Cell fluorescence analysis was carried out on a BD LSRII cell analyzer.

[3] = system: GFP, mCherry, Gli1, and Gli3T; test: Intein splicing across all four proteins tested in mammalian cells; details: no 4-HT
Description: Western blots were performed using Nu-PAGE 12% Bis-Tris gels (Invitrogen) in 3-(Nmorpholino) propanesulfonic acid (MOPS)-sodium dodecyl sulfate (SDS) buffer (Invitrogen). SDSpolyacrylamide gel electrophoresis (PAGE) and Western blotting were performed using standard protocols. Gels were transferred onto polyvinylidene fluoride (PDVF) membranes (Millipore). Western blots were processed using a mouse anti-FLAG antibody (Sigma) as the primary antibody and a secondary Alexa Fluor 800-conjugated goat anti-mouse antibody (Li-cor Biosciences), then visualized and quantitated using an Odyssey imager (Li-cor Biosciences). […]
The inteins were inserted into mCherry, a red fluorescent protein, in place of Thr 113, the residue in mCherry that corresponds to the Cys residue used for intein insertion in GFP. As in the case of GFP, this placement positions the intein near the mid-point of a β-strand and abolishes mCherry fluorescence until splicing takes place (vide infra). […]
The splicing characteristics of the newly evolved inteins was investigated in the contexts of two additional mammalian proteins, Gli1 and Gli3T. […] The resulting constructs were introduced into HEK293 cells and splicing was evaluated by Western blot as described above.

[4] = HEK293, at 24 hours or 12 hours

Molecule | Gli1 protein spliced (Gli1; HEK293, after 12 hours) [%] | Gli1 protein spliced (Gli1; HEK293, after 24 hours) [%] | spliced Gli3T protein (Gli3T; HEK293, after 12 hours) [%] | spliced Gli3T protein (Gli3T; HEK293, after 24 hours) [%] | splicing in the absence of 4-HT (background splicing) (GFP [1]; 30° C., after 24 hours, no 4-HT) [%] | spliced protein (GFP [1]; 37° C., 1 hour after 4-HT treatment) | fraction of the total spliced GFP after 24 hours that was present after 12 hours (GFP [2]; 1 μM 4-HT) [%] | spliced GFP (GFP [2]; after 24 hours, 1 μM 4-HT) [%] | spliced mCherry protein (mCherry; after 12 hours) [%] | spliced mCherry protein (mCherry; after 24 hours) [%] | fold higher percentage of spliced mCherry than that of 3-2 intein (mCherry; [4]) [fold] | fold higher percentage of spliced mCherry than that of the 2-4 intein (mCherry; [4]) [fold] | background splicing in the absence of 4-HT (GFP [2]; GFP context, no 4-HT) | fold higher GFP splicing efficiency than the original 2-4 intein (GFP [2]; after 24 hours, 1 μM 4-HT) [fold] | fold higher GFP splicing efficiency than the original 3-2 intein (GFP [2]; after 24 hours, 1 μM 4-HT) [fold] | background splicing in the absence of 4-HT [3]
3-2: previously evolved parental 4-HT-dependent intein, derived from the 2-4 intein (protein) CLAEGTRIFDPVTGTTHRIEDVVDGRKPIHVVAVAKDGTLLARPVVSWFDQGTRDVIGLRIAGGAIVWATPDHKVLTEYGWRAAGELRKGDRVAGPGGSGNSLALSLTADQMVSALLDAEPPILYSEYDPTSPFSEASMMGLLTNLADRELVHMINWAKRVPGFVDLTLHDQAHLLECAWLEILMIGLVWRSMEHPGKLLFAPNLLLDRNQGKCVEGMVEIFDMLLATSSRFRMMNLQGEEFVCLKSIILLNSGVYTFLSSTLKSLEEKDHIHRALDKITDTLIHLMAKAGLTLQQQHQRLAQLLLILSHIRHMSNKGMEHLYSMKYTNVVPLYDLLLEMLDAHRLHAGGSGASRVQAFADALDDKFLHDMLAEELRYSVIREVLPTRRARTFDLEVEELHTLVAEGVVVHNC | 22 | 32 | 10 | 18 | 15 | did not generate significant amounts of spliced protein | 45 | 33 | – | – | – | – | – | – | – | –
37R3-2: evolved 4-HT-dependent intein, clone from 37° C. evolution, Round 3 (protein) CLAEGTRIFDPVTGTTHRIEDVVDGRKPIHVVAAAKDGTLLARPVVSWFDQGTRDVIGLRIAGGATVWATPDHKVLTEYGWRAAGELRKGDRVAGPGGSGNSLALSLTADQMVSALLDAEPPILYSEYDPTSPFSEASMMGLLTNLADRELVHMINWAKRVPGFVDLTLHDQAHLLERAWLEILMIGLVWRSMEHPGKLLFAPNLLLDRNQGKCVEGMVEIFDMLLATSSRFRMMNLQGEEFVCLKSIILLNSGVYTFLSSTLKSLEEKDHIHRALDKITDTLIHLMAKAGLTLQQQHQRLAQLLLILSHIRHMSNKGMEHLYSMKYKNVVPLYDLLLEMLDAHRLHAGGSGASRVQAFADALDDKFLHDMLAEELRYSVIREVLPTRRARTFDLEVEELHTLVAEGVVVHNC | – | – | – | – | – | – | – | 73 | 43 | 72 | ~3 | ~5 | not observed | 3.8 | 2.2 | very low and often was not detectable
